In US20210261665A1 (TAYU HUAXIA BIOTECH MEDICAL GROUP, published 2021):
Blank lines part the entries; values can stand above or below the binder they belong to.

Experiments:
hPD-1 mIg fusion protein [1] = biological target: T1, hPD-1 mIg fusion protein (human; mouse, UniProt Q15116 25-170); assay: SPR Biacore T200, hPD-1 mIg immobilised at low level, antibody as analyte; reference pembrolizumab and nivolumab
T1 construct: extracellular domain; not shown: CH2-CH3 domain of mouse IgG2a heavy chain (plasmid pmIgG)
T1 sequence (Q15116 25-170): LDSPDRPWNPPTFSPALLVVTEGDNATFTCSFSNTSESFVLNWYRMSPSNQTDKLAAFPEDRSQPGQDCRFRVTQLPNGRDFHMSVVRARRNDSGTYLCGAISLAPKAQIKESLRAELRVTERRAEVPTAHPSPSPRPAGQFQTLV
Description: Antibody binding affinity and kinetics: The affinity and kinetics of theTY101 was analyzed using the Biacore T200 instrument (GE Healthcare Life Sciences) and compared with two commercial antibodies.

human PD-1 on cells [2] = biological target: T2, human PD-1 on cells (human, UniProt Q15116 25-288); assay: cell-based or functional assay
T2 sequence (Q15116 25-288): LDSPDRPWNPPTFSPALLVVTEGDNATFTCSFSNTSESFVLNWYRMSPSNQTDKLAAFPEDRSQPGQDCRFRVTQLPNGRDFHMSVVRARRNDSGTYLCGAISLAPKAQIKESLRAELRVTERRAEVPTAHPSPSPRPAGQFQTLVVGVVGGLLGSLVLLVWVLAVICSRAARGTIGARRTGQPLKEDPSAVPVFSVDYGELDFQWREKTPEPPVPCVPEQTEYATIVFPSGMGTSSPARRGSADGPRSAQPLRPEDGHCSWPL

hPD-1 mIg fusion protein [3] = biological target: T1, hPD-1 mIg fusion protein; assay: SPR Biacore T100, hPD-1mIg immobilised by amine coupling, antibody as analyte
Description: Binding affinity and kinetics determination of the humanized antibodies: The binding affinity and kinetics of the humanized PD-1 mAbs interact with hPD-1 protein was assessed with Biacore T100 (GE Healthcare Life Sciences). […] Nine different concentrations were tested for each sample. Detailed binding kinetic parameters (association rate, Ka, dissociation rate, Kd, and affinity constant, KD) can be determined by full kinetic analysis.

Biotin-hPD-1 [4] = biological target: T3, Biotin-hPD-1 (human, UniProt Q15116 25-167, limits assumed, biotin label, site not stated); assay: competitive ELISA: competitive Ab 15 µg/ml with Biotin-hPD-1; coating Ab Pembrolizumab 1 µg/ml
T3 sequence (Q15116 25-167 limits assumed): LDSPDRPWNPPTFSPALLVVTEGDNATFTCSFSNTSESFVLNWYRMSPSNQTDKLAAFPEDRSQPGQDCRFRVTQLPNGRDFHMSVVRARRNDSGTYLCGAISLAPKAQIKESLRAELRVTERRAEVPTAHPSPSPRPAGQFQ
Description: (§1) A serial dilution of competing antibodies and Biotin-hPD-1 were added to ELISA plates pre-coated with 1 μg/ml a test antibody. HRP conjugated streptavidin was then added, followed by the addition of substrate TMB and quantification with a SpectraMax Plus 384 Microplate Reader at 450 nm wavelength.

Biotin-hPD-1 [5] = biological target: T3, Biotin-hPD-1; assay: competitive ELISA: competitive Ab 15 µg/ml with Biotin-hPD-1; coating Ab Nivolumab 1 µg/ml
Description: as §1

Human PD-1 ECD protein [6] = biological target: T4, Human PD-1 ECD protein (human, UniProt Q15116 25-170); assay: SPR, Biacore T200, hPD-1 ECD immobilised at the high level (960 RU), antibody as analyte, 1:1 fit; kd and KD printed as '*', no visible dissociation over 1500 s [lower right]
T4 construct: extracellular domain; also called hPD-1; recombinant hPD-1
T4 sequence (Q15116 25-170): as the sequence (Q15116 25-170) above
Description: (§2) Human PD-1 ECD protein was immobilized on CMS sensor chip for different length of time to achieve low immobilization level (at 60 RU) in flow cell 3 and high immobilization level (960 RU) in flow cell 4. […] After signals of both the reference (flow cell 1) and the zero concentrations being subtracted from that of samples, binding kinetics was calculated using Biacore T200 evaluation software version 1.0 and a 1:1 binding model for curve fitting.

human PD-1 on cells [7] = biological target: T2, human PD-1 on cells; assay: cell based RBA (flow cytometry): blocking of Biotin-hPD-L1 binding to CHOK1-hPD-1 cells
Description: (§3) The cells were then incubated with Alexa 488 labeled Streptavidin and analyzed using a FACSCanto II.

Biotin-hPD-1 [8] = biological target: T3, Biotin-hPD-1; assay: competitive ELISA: competitive Ab 15 µg/ml with Biotin-hPD-1; coating Ab TY101-04-T3-05 1 µg/ml
Description: as §1

human PD-1 on cells [9] = biological target: T2, human PD-1 on cells; assay: cell based RBA (flow cytometry): blocking of Biotin-hPD-L2 binding to CHOK1-hPD-1 cells
Description: as §3

human PD-1 on cells [10] = biological target: T2, human PD-1 on cells; assay: flow cytometry on CHOK1-hPD-1 cells
[11] = biological target: T5, mPD-1 protein (ELISA coat) (mouse, UniProt Q02242 25-167, limits assumed); assay: ELISA against mPD-1 ECD-Fc protein (plate coat)
T5 sequence (looked up): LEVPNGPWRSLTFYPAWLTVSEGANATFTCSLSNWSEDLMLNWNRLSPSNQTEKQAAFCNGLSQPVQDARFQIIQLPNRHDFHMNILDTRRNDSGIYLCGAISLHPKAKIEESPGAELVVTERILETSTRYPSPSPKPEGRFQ
Description: (§4) The bindings of the antibodies to hPD-1 and the cross-reactivity to mPD-1 proteins were tested by ELISA. A serial dilution of test antibodies were added to ELISA plates pre-coated with 1 μg/ml hPD-1 or mPD-1. HRP conjugated goat anti-human IgG or goat anti-mouse IgG antibody was then added, followed by the addition of substrate Tetramethylbenzidine (TMB) and quantification with a SpectraMax Plus 384 Microplate Reader (Molecular Device, LLC., Sunnyvale, Calif.) at 450 nm wavelength.

Human PD-1 ECD protein [12] = biological target: T4, Human PD-1 ECD protein; assay: SPR, Biacore T200, hPD-1 ECD immobilised at the low level (60 RU), antibody as analyte, 1:1 fit [lower left]
Description: as §2

Biotin-hPD-1 [13] = biological target: T3, Biotin-hPD-1; assay: competitive ELISA: competitive Ab 15 µg/ml with Biotin-hPD-1; coating Ab TY101-4G1 1 µg/ml
Description: as §1

Biotin-hPD-1 [14] = biological target: T3, Biotin-hPD-1; assay: competitive ELISA: competitive Ab 15 µg/ml with Biotin-hPD-1; coating Ab TY101-01-09 1 µg/ml
Description: as §1

[15] = biological target: hPD-1 protein (ELISA coat) (human, UniProt Q15116 25-167, limits assumed); assay: ELISA against hPD-1 ECD-Fc protein (plate coat)
Chain of hPD-1 protein (ELISA coat) (Q15116 25-167 limits assumed): as the sequence (Q15116 25-167 limits assumed) above
Description: as §4

[16] = biological target: T6, cynomolgus monkey PD-1 on cells (cynomolgus monkey, UniProt B0LAJ3 25-288); assay: flow cytometry on CHOK1-cPD-1 cells
T6 construct: also called cPD-1; CHOK1-cPD-1
T6 sequence (B0LAJ3 entry or part of it limits assumed): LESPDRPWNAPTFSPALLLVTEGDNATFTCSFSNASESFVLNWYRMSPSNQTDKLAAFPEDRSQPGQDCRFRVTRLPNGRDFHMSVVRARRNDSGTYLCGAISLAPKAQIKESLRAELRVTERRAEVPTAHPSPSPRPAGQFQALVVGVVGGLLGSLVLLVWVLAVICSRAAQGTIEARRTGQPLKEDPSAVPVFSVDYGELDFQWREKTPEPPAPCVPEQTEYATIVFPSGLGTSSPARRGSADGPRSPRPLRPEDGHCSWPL

human PD-1 on cells [17] = biological target: T2, human PD-1 on cells; assay: flow cytometry on CHO/hPD-1 cells, anti-mIgG-APC
Description: CHO/hPD-1 cells were incubated anti-PD-1 mAbs on ice. After incubation, the cells were washed and further incubated with anti-mIgG-APC (eBiosciences). Flow cytometry analysis was performed using a FACSVerse (BD Biosciences). […] These cells were also stained with their respective positive antibodies respectively as positive control.

fold slower dissociation rate Kd than the two commercial antibodies (hPD-1 mIg fusion protein [1]): 10 fold | EC50; luciferase RLU of Jurkat-PD1 cells stimulated with CHO-PD-L1 cells (PD-1/PD-L1 Blockade Bioassay) (human PD-1 on cells [2]): 0.224 µg/mL | Kd (hPD-1 mIg fusion protein [3]): 0.0963 nM | koff (hPD-1 mIg fusion protein [3]): 2.33e-05 s⁻¹ | kon (hPD-1 mIg fusion protein [3]): 242000 M⁻¹ s⁻¹
B1: Variant 3 (TY101) (antibody, V domains shown)
VH: EVQLVESGGGLVQPGGSLRLSCAASGFTFSSYTMSWVRQAPGKGLEWVSYISHGGGDTYYADSVKGRFTISRDNSKNTLYLQMNSLRAEDTAVYYCARHSGYERGYYYVMDYWGQGTLVTVSS
VL: DIQLTQSPDSLSVSLGERATINCKASESVDYYGFSFLNWFQQKPGQPPKLLIYAASNRQSGVPDRFSGSGSGTDFTLTISSLQAEDVAVYFCQQSKEVPWTFGQGTKLEIKR
notes: Humanized; VH variant a, VK variant c; Constant regions not spelled out; chimeric parent has human IgG4-S228P and human kappa; also called mutant combination 3

Inhibition (%) (Biotin-hPD-1 [4]): 94% | Inhibition (%) (Biotin-hPD-1 [5]): 94% | kon (Human PD-1 ECD protein [6]): 210000 M⁻¹ s⁻¹ | IC50 (human PD-1 on cells [7]): 1.3 nM | Inhibition rate (human PD-1 on cells [7]): 99.5% | Inhibition (%) (Biotin-hPD-1 [8]): 95% | IC50 (human PD-1 on cells [9]): 1.52 nM | Inhibition rate (human PD-1 on cells [9]): 95.3% | EC50 (human PD-1 on cells [10]): 0.87 nM | Max MFI (human PD-1 on cells [10]): 23900 | Max OD450 [11]: 0.92 | binding result [11]: no binding (tested: 100 nM) | Kd (Human PD-1 ECD protein [12]): 0.132 nM | koff (Human PD-1 ECD protein [12]): 1.89e-05 s⁻¹ | kon (Human PD-1 ECD protein [12]): 143000 M⁻¹ s⁻¹ | Inhibition (%) (Biotin-hPD-1 [13]): 95% | Inhibition (%) (Biotin-hPD-1 [14]): 94% | EC50 [15]: 0.14 nM | Max OD450 [15]: 3.03 | EC50 [16]: 1.19 nM | Max MFI [16]: 22100
B2: TY101-04-T3-05 (antibody, V domains shown)
VH: B1 VH
VL: B1 VL
notes: also called TY101 clone TY101-04-T3-05

binding result (human PD-1 on cells [17]): binds
B3: Murine Ab2 (antibody, mouse IgG1, V domains shown)
VH: QVQLQQSGAELARPGASVKMSCKASGYTFTSYTMHWVKQRPGQGLEWIGYINPTTGYTNYNQKFKDKATLTADKSSSTAYMQLSSLTSEDSAVYYCARDDAYYSGYWGQGTTLTVSS
VL: DIQMTQSPASLSVSVGETVTITCRASENIYSNLAWYRQKQGKSPQLLVYAAKNLADGVPSRFSGSGSGTQYSLKINSLQSEDFGSYYCQHFWGTPWTFGGGTKLEIKR
notes: also called anti-hPD-1 mAb 2
